The source of these data is publication PMC4006704.

Assay [1] has as its target GST-Med19 (Drosophila melanogaster) (UniProt Q9VVL6). In words: pull-down; 35S-labelled Hox / homeodomain peptides on immobilised GST-Med19 (Figures 1E, S2).
For assay [2], the target named is multiple GST-Hox proteins (Drosophila melanogaster). In words: pull-down; 35S-labelled Med19 (full length or deleted versions) probing immobilised GST-Hox fusions or GST-HDAntp; standard conditions, essentially as in ref. 68 (Figures 1A, 5A).

Consider “HD region of Drosophila Ubx, with its hexapeptide (HX), linker region and HD (wild-type) (domain or fragment)”, for which, in assay [1], the percent of input bound is 7 % of input.

Turning to “HD region of crustacean Artemia Ubx (linker-shortened C-terminal region) (domain or fragment)”, the percent of input bound in assay [1] is 5 % of input.

B1: 35S-labelled full-length Med19 (Mediator complex subunit 19) (natural protein)
chain: MMSNYGNMMDSPKSSPHGGGRSPVVARQDSSGTLKTTISLGKTPTIIHTGPFYSMKEPPAKAELTGDKDLMTEYGLHHTLTKFKEKKFKESLASFLQNIPGINDLITHPVENSTLRSVIEKPPIGGKELLPLTPVQLAGFRLHPGPLPEQYRTTYVTPARKHKNKHKKQKHKDGVTTGQESTLLDSAGLETYEKKHKKQKRHEDDKERKKRKKEKKRKKKNQSPEPGVGLLPGGASLGGAAGVMGATSLGSLGGGPGGPGLSSLSASMGPGVVGNMNSFSSSMQMQQQQQMPMQQQQMSSGGLLGSVLGTSGGPGGGGGGGGGGGGGVGGSLLMSQF
modifications: 35S-labelled
As for B1, the percent of input bound in assay [2] was > 5 % of input.
